Reference: patent US20240228660A1 (IP2IPO INNOVATIONS, published 2024)
Where a chain is given by its changes, count along the chain named. Where two headings read alike, the source gives them in different places. One block for each binder: values may come before it.

Legend:
human native VWF [1] = biological target: T1, human native VWF (human, UniProt P04275 764-2813); experiment: SPR, Biacore 8K, antibody captured on Protein A, native VWF as analyte (4.4-50 nM), single-cycle kinetics, 1:1 fit; replicate 2
T1 construct: Multimeric glycoprotein; also called native VWF protein; native VWF (305 kDa)
Experimental: (§1) The surface plasmon resonance (SPR) experiments were performed using a Biacore 8K (Cytiva) equipped with a research grade Protein A series S sensor chip. […] Flow cell 1 was left blank to serve as a reference surface. […] The complex was allowed to associate and dissociate for 120 seconds and 7200 seconds respectively. The surfaces were regenerated with 30 see injections of 10 mM glycine-HCl pH1.5.
(§2) Data were collected at a rate of 10 Hz. The data were fit to a simple 1:1 interaction model using the global data analysis option available within the Biacore Insight Evaluation software version 3.0.12.15655.

human native VWF [2] = biological target: T1, human native VWF; experiment: SPR, Biacore 8K, antibody captured on Protein A, native VWF as analyte (4.4-50 nM), single-cycle kinetics, 1:1 fit; replicate 1
Experimental: as §1, §2

human full-length VWF [3] = biological target: T2, human full-length VWF (human, UniProt P04275 764-2813); experiment: SPR, Biacore T200, antibody captured on Protein A, full-length VWF as analyte, single-cycle kinetics;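 as to koff: running buffer HEPES pH 7.4 with 300 mM NaCl, 3 mM EDTA and 0.05% P20, about 350 RU antibody captured, in-line reference flow cell subtracted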;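 as to kon: running buffer HEPES pH 7.4 with 300 mM NaCl, 3 mM EDTA and 0.05% P20, about 350 RU antibody captured, in-line reference flow cell subtracted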
human full-length VWF [4] = biological target: T2, human full-length VWF; experiment: SPR Biacore T200, antibody captured on Protein A chip, full-length VWF as analyte, single-cycle kinetics
Experimental: (§3) Antibodies were captured on Protein A sensor chip. The system was purged using running buffer (10 mM HEPES pH 7.4, 300 mM NaCl, 3 mM EDTA, 0.05% P20) and a series S Protein A chip was docked in the Biacore T200. The surface was conditioned with 10 mM glycine-HCl pH 1.5 regeneration solution (3 injections). Each antibody was diluted to ˜0.8 μg/ml in running buffer to capture ˜350 RU on flow cells 2, 3 and 4 (flow cell 1 used as in-line reference cell). Single-cycle kinetic analysis of human full-length VWF binding to antibodies was performed using the following parameters:

human full-length VWF [5] = biological target: T2, human full-length VWF; experiment: SPR, Biacore T200, antibody captured on Protein A, full-length VWF as analyte, single-cycle kinetics; remark: listed apart in the source;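 as to koff: running buffer HEPES pH 7.4 with 300 mM NaCl, 3 mM EDTA and 0.05% P20, about 350 RU antibody captured, in-line reference flow cell subtracted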
Experimental: as §3

human native VWF [6] = biological target: T1, human native VWF; experiment: SPR, Biacore 8K, antibody captured on Protein A, native VWF as analyte (4.4-50 nM), single-cycle kinetics, 1:1 fit; replicate 3
Experimental: as §1, §2

human native VWF [7] = biological target: T1, human native VWF; experiment: ELISA, native VWF coated at 20 ng/well, semi-log dilution of the mAb from 10 µg/ml, anti-human IgG-HRP/TMB
Experimental: (§4) Purified monoclonal antibodies originally derived from scFvs selected from rabbit immune library were tested for binding towards C1-C6-Fc, VWFAD4-C6, BSA (100 ng/well) and human native VWF (Imperial College, 20 ng/well). […] Protein targets were immobilized overnight on ELISA plates, blocked and incubated with a semi-log dilution series of purified recombinant monoclonal antibodies (starting concentration 10 μg/ml), averages of duplicate values are shown. Antibody binding towards human native VWF, VWFAD4-C6 and BSA were detected with antihuman IgG-HRP or anti-human IgG-HRP and TMB staining. ELISA reactivities towards C1-C6-Fc were performed in a separate ELISA experiment and were detected with anti-human IgGκ-HRP and TMB staining.

human full-length VWF [8] = biological target: T2, human full-length VWF; experiment: SPR, Biacore T200, antibody captured on Protein A, full-length VWF as analyte, single-cycle kinetics; remark: listed apart in the source;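 as to koff: running buffer HEPES pH 7.4 with 300 mM NaCl, 3 mM EDTA and 0.05% P20, about 350 RU antibody captured, in-line reference flow cell subtracted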
Experimental: as §3

human native VWF [9] = biological target: T1, human native VWF; experiment: ELISA, native VWF coated at 20 ng/well, semi-log dilution of the mAb from 10 µg/ml, anti-human IgG-HRP/TMB; remark: listed apart in the source
Experimental: as §4

Kd (human native VWF [1]): 0.527 nM
Kd (human native VWF [2]): 0.164 nM
Kd (human full-length VWF [3]): 0.00802 nM
B1: 1-A2 (antibody, human IgG1, V domains shown)
VH: QSVEESGGRLVPPGTPLTLTCTVSGIDLTSNAMNWVRQAPGKGLEWIGGIYGHDTSYYAAWAKGRFTISRTSTTVDLKMTRPTTDDTATYFCARGFIYFDIWGTGTLVTISS
VL: AIEMTQTPPSLSASVGETVRIRCLASEDIYSGISWYQQKPGKPPTLLIYGASNLESGVPPRFSGSGSGTDYTLTIGGVQAEDAATYYCLGGHSHSTTDLTFGAGTKVEIK
notes: Rabbit-derived variable domains cloned into a human IgG1 expression vector and expressed as monoclonal antibody; also called clone 1-A2; antibody 1-A2

Kd (human native VWF [1]): 0.154 nM
Kd (human native VWF [2]): 0.123 nM
Kd (human full-length VWF [3]): 0.0153 nM
B2: 4-H3 (antibody, human IgG1, V domains shown)
VH: B1 VH with V3L
VL: B1 VL with I2Y, E3D, Y30A, H92Y, H94F, T96S, T97N, D98G
notes: Rabbit-derived variable domains expressed as human IgG1; also called clone 4-H3

Kd (human full-length VWF [4]): < 1 nM
Kd (human full-length VWF [5]): 0.000174 nM
koff (human full-length VWF [5]): 2.25e-08 s⁻¹
kon (human full-length VWF [5]): 129000 M⁻¹ s⁻¹
B3: 1-G5_H2_L1 (antibody, human IgG1, kappa)
heavy: not shown
light: DPQMTQSPSSLSASVGDRVTITCQASQSVYNNNYLSWYQQKPGKAPKLLIYDASTLASGVPSRFSGSGSGTDFTLTISSLQPEDFATYYCQGSYYSGGWDTAFGGGTKVEIKTVAAPSVFIFPPSDEQLKSGTASVVCLLNNFYPREAKVQWKVDNALQSGNSQESVTEQDSKDSTYSLSSTLTLSKADYEKHKVYACEVTHQGLSSPVTKSFNRGEC
notes: humanised, human IgG1 kappa

Kd (human full-length VWF [4]): < 1 nM
Kd (human full-length VWF [5]): 0.0148 nM
koff (human full-length VWF [5]): 6.03e-07 s⁻¹
kon (human full-length VWF [5]): 40700 M⁻¹ s⁻¹
B4: 1-G5_H1_L1 (antibody, human IgG1, kappa)
heavy: not shown
light: B3 light
notes: humanised, human IgG1 kappa

Kd (human full-length VWF [4]): < 1 nM
Kd (human full-length VWF [5]): 0.013 nM
koff (human full-length VWF [5]): 3.9e-07 s⁻¹
kon (human full-length VWF [5]): 29900 M⁻¹ s⁻¹
B5: 1-G5_H2_L0 (antibody, human IgG1, kappa)
heavy: not shown
light: B3 light with P2I
notes: humanised, human IgG1 kappa

Kd (human full-length VWF [4]): < 1 nM
Kd (human full-length VWF [5]): 0.0011 nM
koff (human full-length VWF [5]): 9.05e-08 s⁻¹
kon (human full-length VWF [5]): 82400 M⁻¹ s⁻¹
B6: 1-G5_H0_L0 (antibody, human IgG1, kappa)
heavy: not shown
light: B3 light with P2I
notes: humanised, human IgG1 kappa

Kd (human full-length VWF [4]): < 1 nM
Kd (human full-length VWF [5]): 0.0129 nM
koff (human full-length VWF [5]): 1.02e-06 s⁻¹
kon (human full-length VWF [5]): 79000 M⁻¹ s⁻¹
B7: 1-G5_H0_L1 (antibody, human IgG1, kappa)
heavy: not shown
light: B3 light
notes: humanised, human IgG1 kappa

Kd (human native VWF [1]): 0.084 nM
Kd (human native VWF [2]): 0.0487 nM
Kd (human native VWF [6]): 0.025 nM
EC50 (read off the curve) (human native VWF [7]): ~8 ng/mL
Kd (human full-length VWF [8]): 0.0603 nM
B8: 3-H9 (antibody, human IgG1, V domains shown)
VH: QSLEESGGRLVTPGTPLTLTCSVSGFSLSNYDMSWVRQAPGKGLEWIGSIHAIGITYYANWAEGRFTISKTSTTVDLKMTSLTTEDTATYFCARGLVDLNMWGPGTLVTVSS
VL: AIKMTQTPSSVSVAVGGTVTINCQSSQSVYSNNLLSWYQQKPGQPPKLLIYDASTLESGVPSRFKGSGSGTQFTLTISGVQCEDAATYYCQGSYYSSGWYNTFGGGTEVVVE
notes: Rabbit-derived variable domains expressed as human IgG1; also called clone 3-H9; antibody 3-H9

Kd (human native VWF [1]): 0.079 nM
Kd (human native VWF [2]): 0.0549 nM
Kd (human native VWF [6]): 0.123 nM
Kd (human full-length VWF [5]): 0.0253 nM
B9: 1-G5 (antibody, human IgG1, V domains shown)
VH: B8 VH with N30S, S34T, I53T, Y57F, E63K, I68T
VL: DPVMTQTASSVSAAVGGTVTINCQASQSVYNNNYLSWYQQKPGQPPKLLIYDASTLASGVPSRFSGNGSGTQFTLTISGVQCDDAATYYCQGSYYSGGWDTAFGGGTKVVVK
notes: Rabbit-derived variable domains expressed as human IgG1; also called clone 1-G5

Kd (human native VWF [1]): 0.0381 nM
Kd (human native VWF [2]): 0.025 nM
Kd (human native VWF [6]): 0.0641 nM
EC50 (read off the curve) (human native VWF [9]): ~6 ng/mL
B10: 1-D5 (antibody, human IgG1, V domains shown)
VH: QQQLVESGGRLVTPGTPLTLTCAVSGFSLNNYIMGWVRQAPGKGLEYIGIISTGGSTYYASWAKGRFTISRTSTTMDLKMTSLTTEDTATYFCARGGSSAGAGFNIWGPGTLVTVSS
VL: DIVMTQTPSSVSAAVGDTVTIQCQASQSINSGLAWYQQKPGQPPKRLIYKASTLASGVPSRFRGSGSGTDFTLTISDLECADAATYYCQSYHYISANGATFGGGTEVVVE
notes: Rabbit-derived variable domains expressed as human IgG1; also called clone 1-D5; antibody 1-D5
